{
  "source": "patent US20220017621A1",
  "about": "“Combination Therapy for Cancer” (Merck Patent GmbH, priority 2016, published 2022)",
  "origin": "cited, not measured here",
  "molecules": {"B1": {"name": "recombinant soluble TGFβRII: recombinant soluble extracellular domain of TGFβRII, from the literature (Lin et al.) (protein, UniProt P37173 23-166, looked up)", "extracellular domain": "TIPPHVQKSVNNDMIVTDNNGAVKFPQLCKFCDVRFSTCDNQKSCMSNCSITSICEKPQEVCVAVWRKNDENITLETVCHDPKLPYHDFILEDAASPKCIMKEKKKPGETFFMCSCSSDECNDNIIFSEEYNTSNPDLLLVIFQ", "modifications": "extracellular domain"}},
  "molecular_target": "TGFβ1 (Homo sapiens, UniProt P01137)",
  "sequence (P01137 279-390 limits assumed, species assumed)": "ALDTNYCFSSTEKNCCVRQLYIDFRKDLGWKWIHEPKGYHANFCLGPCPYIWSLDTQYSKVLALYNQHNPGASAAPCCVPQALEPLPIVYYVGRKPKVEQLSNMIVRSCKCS",
  "details": "binding of TGFβ1",
  "data": [
    {"molecule": "B1", "values": [
      {"measurement": "Kd", "result": 0.2, "unit": "nM"}
    ]}
  ]
}
